Measured values taken from publication PMC3573685.
Read-outs that look alike come from different tables or passages of the source.

What was measured:
[1] = target: Aquifex aeolicus TatC (Aquifex aeolicus); experiment: ITC
[2] = target: Aquifex aeolicus TatC (Aquifex aeolicus)

Chain of Tat signal peptide of the E. coli protein SufI (P26648 1-27 limits assumed): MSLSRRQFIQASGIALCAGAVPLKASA

Row | Kd [1] | stoichiometry N [1] | stoichiometry N [2] | Substance
1 | 3 µM | 1 |  | Tat signal peptide of the E. coli protein SufI
2 |  |  | 2 | Aquifex aeolicus TatC (natural protein)
